Target: NES-Venus-miniGs
Experiment: BRET (NanoLuc-labelled receptor and Venus-labelled mini-Gs recruitment)
Details: three independent experiments; for percent of parent: Emax of the DMCH concentration-response; for other: pEC50: pEC50 of the agonist DMCH for mini-Gs recruitment

mTAAR7f with N-terminal twin-strep tag and SNAP-tag and C-terminal nanoluc (wild type) (from UniProt Q5QD08) C131A
percent of parent: 60%
other: pEC50: 4.9

mTAAR7f with N-terminal twin-strep tag and SNAP-tag and C-terminal nanoluc (wild type) (from UniProt Q5QD08) D127A
percent of parent: 0%

mTAAR7f with N-terminal twin-strep tag and SNAP-tag and C-terminal nanoluc (wild type) (from UniProt Q5QD08) V315A
percent of parent: 0%

mTAAR7f with N-terminal twin-strep tag and SNAP-tag and C-terminal nanoluc (wild type) (from UniProt Q5QD08) W286Y
percent of parent: 24%
other: pEC50: 5.3

mTAAR7f with N-terminal twin-strep tag and SNAP-tag and C-terminal nanoluc (wild type) (from UniProt Q5QD08) Y132A
percent of parent: 17%
other: pEC50: 3.6

mTAAR7f with N-terminal twin-strep tag and SNAP-tag and C-terminal nanoluc (wild type) (from UniProt Q5QD08) Y289A
percent of parent: 47%
other: pEC50: 4.2

From article doi:10.1101/2023.07.07.547762
